The experiment addresses SARS-CoV-2 spike S1 domain (SARS-CoV-2, ancestral (Wuhan-Hu-1/WA1 …, UniProt P0DTC2)). As to the kind of experiment: ELISA. On the technique in general: ELISA stands for enzyme-linked immunosorbent assay.

B1: ADPT02606 (antibody, V domains shown)
VH: EVQLVESGGGLVKPGGSLRLSCAASGFTFSSYSMNWVRQAPGKGLEWVSSITSSSGYMYYADSVKGRFTISRDNAKNSLYLQLNSLRAEDTAVYYCAKDSAFDLWEVRSYYYVMDVWGQGTTVTVSS
VL: not shown
Turning to B1, the binding result was “binds”.
